These results are taken from article PMC2928751.

Assay [1] has as its target Gli3 D-site peptide (human). In words: peptide or protein array; 17-mer peptides linked by the C-terminus to a nitrocellulose membrane, in duplicate, probed with [35S]-methionine labelled JNK1; PhosphorImager signal normalised to MKK7-D2 = 100%.
For assay [2], the target named is MLL4 D-site peptide (human). The assay is described as above.
Assay [3] concerns the target Neil1 D-site peptide (human). The assay is described as above.
The target in assay [4] is 35S-radiolabeled JNK1, P45983-2. The experiment in a line: peptide array probed with 35S-labeled JNK1, Phosphorimager quantification. As to conditions: read off a plot.

Regarding “35S-radiolabeled JNK1 (from UniProt P45983-2 1-384) (enzyme)”, the binding normalised to the MKK7-D2 positive control in assay [1] was 193 % of MKK7-D2; in assay [2], 161 % of MKK7-D2; in assay [3] it was 198 % of MKK7-D2.
With “MKK4 D-site peptide (positive control) MKK4 Mut (alanine substitutions at the critical basic and hydrophobic residues; not printed)”, the response (% of MKK7-D2 binding) in assay [4] (parent: est. 520) was found to be 28.
Take “MKK7-D2 peptide (positive control) MKK7 Mut (alanine substitutions at the critical basic and hydrophobic residues; not printed)”: the percent of parent (% of MKK7-D2 binding) in assay [4] (parent: est. 100) came out at 12.
